Reference: PMC11288887 (2024)
No end group written: not given here.

Assays:
Test in all cases: FP
(DLP)6 binder = target: (DLP)6 binder
(DLS)6 binder = target: (DLS)6 binder
(KLP)6 binder = target: (KLP)6 binder

Row | Kd ((DLP)6 binder) | Kd ((DLS)6 binder) | Kd ((KLP)6 binder) | Binder
1 | ~1000 nM | ~1800 nM | – | tetramethylrhodamine-KLPKLPKLPKLPKLPKLP [(KLP)6]
2 | – | 0.7 nM | 4.6 nM | tetramethylrhodamine-DLPDLPDLPDLPDLPDLP [(DLP)6]
